Here are results for 1 molecule from patent US20200405841A1 (GlaxoSmithKline, published 2020).

For assay [1], the target named is UspA2 of Moraxella catarrhalis Denmark isolate BBH18 (Moraxella catarrhalis). In words: cell-based or functional assay.
The target of assay [2] is UspA1 of Moraxella catarrhalis strain ATCC 43617 (Moraxella catarrhalis). In words: cell-based or functional assay.
In assay [3] the target is UspA2H of Moraxella catarrhalis UK isolate 415 (AERIS study) (Moraxella catarrhalis). The experiment in a line: cell-based or functional assay.
Assay [4] addresses T1, UspA2 of Moraxella catarrhalis strain ATCC 25238 (Moraxella catarrhalis).
T1 chain: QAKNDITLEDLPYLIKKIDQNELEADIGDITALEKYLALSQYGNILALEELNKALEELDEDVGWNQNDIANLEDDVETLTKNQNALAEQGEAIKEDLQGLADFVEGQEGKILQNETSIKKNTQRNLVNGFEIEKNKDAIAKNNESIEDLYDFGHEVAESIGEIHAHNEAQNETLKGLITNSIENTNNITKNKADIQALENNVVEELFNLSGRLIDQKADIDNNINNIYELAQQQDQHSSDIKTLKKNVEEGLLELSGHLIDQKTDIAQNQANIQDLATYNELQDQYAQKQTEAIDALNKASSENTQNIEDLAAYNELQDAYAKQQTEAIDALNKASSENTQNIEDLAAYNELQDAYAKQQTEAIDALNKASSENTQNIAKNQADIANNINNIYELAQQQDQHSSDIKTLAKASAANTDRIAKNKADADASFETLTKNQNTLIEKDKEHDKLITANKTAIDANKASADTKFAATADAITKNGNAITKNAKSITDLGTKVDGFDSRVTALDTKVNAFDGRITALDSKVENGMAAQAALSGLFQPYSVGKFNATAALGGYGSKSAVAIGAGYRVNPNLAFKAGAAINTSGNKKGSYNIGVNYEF
In words: cell-based or functional assay.

For assay [5], the target named is UspA2H of Moraxella catarrhalis UK isolate 193 (AERIS study) (Moraxella catarrhalis). The experiment in a line: cell-based or functional assay.
In assay [6] the target is UspA2H of Moraxella catarrhalis UK isolate 268 (AERIS study) (Moraxella catarrhalis). The experiment in a line: cell-based or functional assay.
Assay [7] concerns the target UspA2H of Moraxella catarrhalis UK isolate 296 (AERIS study) (Moraxella catarrhalis). The experiment in a line: cell-based or functional assay.
Assay [8] has as its target T2, UspA2 of Moraxella catarrhalis Dutch isolate F10 (Moraxella catarrhalis).
T2 chain: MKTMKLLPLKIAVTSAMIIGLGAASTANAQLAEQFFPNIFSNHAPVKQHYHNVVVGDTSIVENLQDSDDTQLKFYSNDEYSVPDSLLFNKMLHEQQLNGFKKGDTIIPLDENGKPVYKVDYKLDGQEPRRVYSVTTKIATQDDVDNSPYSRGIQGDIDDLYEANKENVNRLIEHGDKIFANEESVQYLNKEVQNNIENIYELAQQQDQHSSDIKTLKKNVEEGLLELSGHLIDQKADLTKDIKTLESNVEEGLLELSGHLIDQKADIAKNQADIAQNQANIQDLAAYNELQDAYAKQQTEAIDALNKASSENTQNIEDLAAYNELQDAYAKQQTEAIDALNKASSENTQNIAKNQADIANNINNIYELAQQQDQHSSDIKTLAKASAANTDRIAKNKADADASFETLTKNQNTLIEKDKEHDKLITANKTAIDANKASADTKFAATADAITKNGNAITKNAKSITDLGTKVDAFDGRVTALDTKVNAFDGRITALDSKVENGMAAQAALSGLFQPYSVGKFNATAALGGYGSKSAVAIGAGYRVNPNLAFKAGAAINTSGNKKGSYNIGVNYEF
In words: cell-based or functional assay.

The target in assay [9] is UspA2H of Moraxella catarrhalis UK isolate 240 (AERIS study) (Moraxella catarrhalis). In words: cell-based or functional assay.
Assay [10] has as its target T3, recombinant soluble UspA2 (SEQ ID NO: 53) (Moraxella catarrhalis).
T3 construct: also called MC-009; soluble UspA2 recombinant protein
T3 chain: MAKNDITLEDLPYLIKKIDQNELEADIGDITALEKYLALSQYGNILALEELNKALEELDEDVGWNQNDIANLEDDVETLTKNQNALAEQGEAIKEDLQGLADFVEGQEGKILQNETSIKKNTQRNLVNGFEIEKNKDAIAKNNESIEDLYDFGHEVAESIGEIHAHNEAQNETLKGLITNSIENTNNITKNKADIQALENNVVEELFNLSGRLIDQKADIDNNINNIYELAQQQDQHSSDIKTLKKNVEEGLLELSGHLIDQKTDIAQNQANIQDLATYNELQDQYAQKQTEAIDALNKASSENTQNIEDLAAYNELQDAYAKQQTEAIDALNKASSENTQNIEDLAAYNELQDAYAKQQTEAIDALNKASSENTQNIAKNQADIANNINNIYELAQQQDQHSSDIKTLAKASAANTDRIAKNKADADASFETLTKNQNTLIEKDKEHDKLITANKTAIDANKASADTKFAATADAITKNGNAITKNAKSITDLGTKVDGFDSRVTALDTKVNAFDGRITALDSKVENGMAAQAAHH
The experiment in a line: negative-stain electron microscopy of the complex.

B1: FHUSPA2/10 monoclonal antibody (antibody, V domains shown)
VH: EVQLQQSGTVLARPGASVKMSCKASGYSFTSYWMHWVKQRPGQGLEWIGAIYPGNSDTSYNQKFKGKAKLTAVTSASTAYMELSNLTNEDSAVYSCTLLRFLDAYWGQGTLVTVSA
VL: QIVLSQSPAILSASPGEKVTMTCRASSSVSYMHWYQQKPGSSPKPWIYATSNLASGVPARFSGSGSGTSYSLTISRVEAEDAATYYCQQWSSNPPTFGGGSKLEIK
notes: Hybridoma-secreted mouse monoclonal antibody; Isotype confirmed as IgG2a, light chain of kappa class; also called FHUSPA2/10 mAb; anti-UspA2 monoclonal antibody FHUSPA2/10
In the case of B1, the “bactericidal activity (mid-point titer)” value in assay [1] is 386000 reciprocal dilution inducing 50% of killing; in assay [2], < 100 reciprocal dilution inducing 50% of killing; in assay [3], 256000 reciprocal dilution inducing 50% of killing; in assay [4], 1.88e+06 reciprocal dilution inducing 50% of killing; in assay [5], > 640000 reciprocal dilution inducing 50% of killing; in assay [6] it was > 384000 reciprocal dilution inducing 50% of killing. In addition, the “bactericidal activity (mid-point titer)” value in assay [7] is 114000 reciprocal dilution inducing 50% of killing; in assay [8], 528000 reciprocal dilution inducing 50% of killing; in [9], > 25600 reciprocal dilution inducing 50% of killing. Besides, in [10], the binding result is listed as “binds”.
